Paper PMC8273888

Legend:
[1] = tested on: [H][C@]12SCC(CSC(C(=O)O)c3ccccc3)=C(C(=O)O)N1C(=O)[C@H]2NC(=O)Cc1ccccc1; test: purified protein, by the assay type; conditions: pH 7.2, 25.0 °C
[2] = tested on: [H][C@]12SCC(CS[C@H](Cc3ccccc3)C(=O)O)=C(C(=O)O)N1C(=O)[C@H]2NC(=O)Cc1ccccc1; test: purified protein, by the assay type; conditions: pH 7.2, 25.0 °C
[3] = other: compound as substrate of NDM-1
[4] = other: compound as substrate of VIM-2

Row | Substance | Km [1, 3] | kcat [1, 3] | kcat/Km [1, 3] | Km [2, 3] | kcat [2, 3] | kcat/Km [2, 3] | Km [1, 4] | kcat [1, 4] | kcat/Km [1, 4] | Km [2, 4] | kcat [2, 4] | kcat/Km [2, 4]
1 | NDM-1 (Klebsiella pneumoniae) | 14.0 ± 2 µM | 13.1 s⁻¹ | 936000 M⁻¹ s⁻¹ | 21.2 ± 4 µM | 17.4 s⁻¹ | 821000 M⁻¹ s⁻¹ | – | – | – | – | – | –
2 | VIM-2 (Escherichia coli) | – | – | – | – | – | – | 8.28 ± 2 µM | 4.06 s⁻¹ | 490000 M⁻¹ s⁻¹ | 4.30 ± 1 µM | 2.35 s⁻¹ | 546000 M⁻¹ s⁻¹
